Experiments:
[1] = biological target: TAT-028 protein on the surface of human tumor cell lines (NCI-H460, HEK293, HepG2) (human) (UniProt P80723); assay: flow cytometry on HEK293 cells; secondary antibody only, background control
[2] = biological target: TAT-028 protein on the surface of human tumor cell lines (NCI-H460, HEK293, HepG2) (human) (UniProt P80723); assay: flow cytometry on HepG2 cells; secondary antibody only, background control
[3] = biological target: TAT-028 protein on the surface of human tumor cell lines (NCI-H460, HEK293, HepG2) (human) (UniProt P80723); assay: flow cytometry on NCI-H460 cells; secondary antibody only, background control

Chain of UniProt P80723 (P80723 2-227 limits assumed): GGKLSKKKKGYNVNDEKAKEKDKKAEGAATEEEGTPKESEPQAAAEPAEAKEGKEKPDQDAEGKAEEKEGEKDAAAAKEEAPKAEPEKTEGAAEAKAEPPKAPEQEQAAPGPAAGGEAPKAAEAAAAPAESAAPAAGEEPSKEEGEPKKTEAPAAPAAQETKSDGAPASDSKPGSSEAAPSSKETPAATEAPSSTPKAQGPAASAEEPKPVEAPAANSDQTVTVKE

geometric mean fluorescence (geometric mean fluorescence units) [1]: 124
geometric mean fluorescence (geometric mean fluorescence units) [2]: 178
geometric mean fluorescence (geometric mean fluorescence units) [3]: 37
Substance: PE-conjugated anti-mouse IgG (antibody)

— patent publication US20070192883A1
